From US20250026813A1 (published 2025) come the findings set out here.

Experiment [1] addresses full-length stabilised spike trimer protein of SARS-CoV-2 virus (in-house, soluble ECD with trimeris (SARS-CoV-2, UniProt P0DTC2 14-1208; P10104 458-484).
Experiment [2] deals with T1, S1 subunit of the SARS-CoV-2 spike protein (Sino Biological 40591-V08H), His tag (SARS-CoV-2, UniProt P0DTC2 16-685).
T1 construct: domain: S1 subunit

In experiment [3] the target is SARS-CoV-2 spike protein bearing furin mutation and truncation in retention sequence, presented in t (SARS-CoV-2, UniProt P0DTC2 14-1273). Put plainly: cell-based or functional assay.

B1: IMPI-006 (antibody, V domains shown)
VH: QLQLQESGPGLVKPSETLSLTCTVSGGSISNSNYYWGWIRQPPGKGLEWIGSIYYSGRTYYNPSLKSRVTISVDTSKNQFSLKLSSVTAADTAVYYCARMGLLWFGEFYGMDVWGQGTTVTVSS
VL: DIQMTQSPSSLSASVGDRVTITCRASQGISSWLAWYQQKPEKAPKSLIYDASSLQRGVPSRFSGSGSGTDFTLTISSLQPEDFASYYCQQYNSYPLTFGGGTRVEIK
For B1, the “HTRF deltaF” value in experiment [1] worked out at 1060 deltaF; in experiment [2] it was 885 deltaF.

B2: IMPI-024 (antibody, V domains shown)
VH: EVQLVQSGAEVKKPGESLKISCKGSGYSFTSYWIGWVRQMPGKGLEWMGIIYPGDSDTRYSPSFQGQVTISADKSISTAYLQWSSLKASDTAMYYCVRSYNWNYFDYWGQGTLVTVSS
VL: AIQLTQSPSSLSASVGDRVTITCRASQGISSGLAWYQQKAGKAPKLLIYDVSSLESGVPSRFSGSGSGTDFTLTISSLQPEDFATYYCQQFLSYPWTFGQGTKVEIK
For the molecule B2, the entries for the “HTRF deltaF” value in experiment [1] and in experiment [2] were 1460 deltaF and 799 deltaF, respectively.

B3: IMPI-029 (antibody, V domains shown)
VH: EVQLVESGGGLIQPGGSLRLSCAASGVTVSSNYMNWVRQAPGKGLEWVSVIYSGGSTYYADSVKGRFTISRDNSKNTLFLQMNSLRAEDSAVYYCARDLGPYGVDVWGQGTTVTVSS
VL: DIQLTQSPSFLSASVGDRVTITCWASQGISSYLAWYQQKPGKAPKLLIYAASTLQSGVPSRFSGSGSGTEFTLTISSLQPEDFATYYCQELNSYPLTFGQGTRLEIK
Consider B3, for which the results for the “HTRF deltaF” value in experiment [1] and in experiment [2] were 1700 deltaF and 3050 deltaF, respectively.

B4: IMPI-047 (antibody, V domains shown)
VH: EVQLVESGGGLIQPGGSLRLSCAASGFTVSSNYMNWVRQAPGKGLEWVSVIYSGGSTYYADSVKGRFTISRDNSKNTLYLQMNSLRTEDTAVYYCARDLVAYGMDVWGQGTTVTVSS
VL: DIQLTQSPSFLSASVGDRVTITCWASQGISSYLAWYQQKPGKAPKVLIYAASTLQSGVPSRFSGSGSGTEFTLTISSLQPEDFATYYCQLLNSNPLTFGGGTKVEIK
As for B4, the “HTRF deltaF” value was found to be 1410 deltaF in experiment [1] and 2250 deltaF in experiment [2].

B5: IMPI-017 (antibody, V domains shown)
VH: EVQLVESGGGLIQPGGSLRLSCAAAGLTVSSNYMNWVRQVPGKGLEWVSVIYSGGSTYYADSVKGRFTISRDNSKNTLYLQMNSLRAEDTAVYYCARDLGTLGMDVWGQGTTVTVSS
VL: DIQLTQSPSFLSASVGDRVTITCWASQGISTYLAWYQQKPGKAPKLLIYAASTLQSGVPSRFSGSGSGTEFTLTISSLQPEDFATYYCQQLNSYLPTFGQGTKVEIK
On to B5, for which the “HTRF deltaF” value was found to be 550 deltaF in experiment [1] and 752 deltaF in experiment [2].

B6: IMPI-060 (antibody, V domains shown)
VH: EVQLVESGGGLIQPGGSLRLSCAASGVTVSSNYMSWVRQAPGKGLEWVSVIYSGGSTFYADSVKGRFTISRDNSKNTLYLQMNSLRAEDTAVYYCARDLSYYGMDVWGQGTTVTVSS
VL: DIQLTQSPSFLSASVGDRVTITCWASQGISSYLAWYQQKPGKAPKLLIYAASTLQSGVPSKFSGSGSGTEFTLTISSLQPEDFATYYCQQLNSYPSSFGQGTKLEIK
B6: the “HTRF deltaF” value in experiment [1] turned out to be 488 deltaF; in experiment [2], 378 deltaF.

B7: IMPI-005 (antibody, V domains shown)
VH: EVQLVESGGGLIQPGGSLRLSCAASGFTVSSNYMNWVRQAPGKGLEWVSVIYSGGSTYYADSVKGRFTISRDNSKNTLFLQMNSLRAEDSAVYYCARDLGPYGVDVWGQGTTVTVSS
VL: DIQLTQSPSFLSASVGDRVTITCWASQGISSYLAWYQQKPGKAPKLLIYAASTLQSGVPSRFSGSGSGTEFTLTISSLQPEDFATYYCQELNSYPLTFGQGTRLEIK
Turning to B7, the figures for the “HTRF deltaF” value in experiment [1] and in experiment [2] were 1360 deltaF and 1510 deltaF, respectively.

B8: IMPI-021 (antibody, V domains shown)
VH: EVQLVESGGGLIQPGGSLRLSCAASGVTVSSNYMSWVRQAPGKGLEWVSVIYSGGSTFYADSVKGRFTISRDNSKNTLYLQMNSLRAEDTAVYYCARDLSYYGMDVWGQGTTVTVSS
VL: DIQLTQSPSFLSASVGDRVTITCWASQGISSYLAWYQQKPGKAPKLLIYAASTLQSGVPSKFSGSGSGTEFTLTISSLQPEDFATYYCQQLNSYPCSFGQGTKLEIK
As for B8, the “HTRF deltaF” value in experiment [1] stood at 962 deltaF; in experiment [2] it was 1280 deltaF.

B9: IMPI-063 (antibody, V domains shown)
VH: EVQLVESGGGVVRPGGSLRLSCAASGFTFDDYGMSWVRQAPGKGLEWVSGIYWNGGSTGYADSVKGRFTISRDNAKNSLYLQMNSLRAEDMALYYCARGVGATDYWGQGTLVTVSS
VL: EIVLTQSPGTLSLSSGERATLACRASESVRGSFLAWYQQKPGQAPRLLIYGASRRATGIPDRFSGSGSGTDFTLTISRLEPEDFAVYYCQQYGNSPMCSFGQGTKLEIK
Regarding B9, the “HTRF deltaF” value in experiment [1] is 968 deltaF; in experiment [2], -0.4 deltaF.

B10: IMPI-054 (antibody, V domains shown)
VH: EVQLVESGGGLIQPGGSLRLSCAASGLTVSSNYMSWVRQAPGKGLEWVSIIYSGGSTYYADSVKGRFTISRDNSKNTLYLQMNSLRAEDTAVYYCARLGGYYYYGMDVWGQGTTVTVSS
VL: DIQMTQSPSSLSASVGERVTITCQASQDIRNYLNWYQKKPGKAPKLLIYDSSNLETGVPSRFSGSGSGTDFTFTISSLQPEDIATYYCQQYDNLPITFGQGTRLEIK
Regarding B10, the “HTRF deltaF” value in experiment [1] turned out to be 563 deltaF; in experiment [2], 772 deltaF.

B11: IMPI-042 (antibody, V domains shown)
VH: EVQLVESGGGLIQPGGSLRLSCAASGLTVSSNYMSWVRQAPGKGLEWVSIIYSGGSTYYADSVKGRFTISRDNSKNTLYLQMNSLRAEDTAVYYCARLGGYYYYGMDVWGQGTTVTVSS
VL: DIQMTQSPSSLSASVGERVTITCQASQDIRNYLNWYQKKPGKAPKLLIYDSSNLETGVPSRFSGGGSGTDFTFTISSLQPEDIATYYCQQYDNLPITFGQGTRLEIK
As to B11, the “HTRF deltaF” value in experiment [1] worked out at 926 deltaF; in experiment [2] it was 617 deltaF.

B12: IMPI-055 (antibody, V domains shown)
VH: QVQLVQSGAEVKKPGASVKVSCKASGYTFTSYDINWVRQATGQGLEWMGWMNPNSGNTGYAQKFQGRVTMTRDTSINTAYMELSSLRSEDTAVYFCARGGRYCSDVTCYSGEPFDYWGQGTLVTVSS
VL: EIMLTQSPDFQSVTPKEKVTITCRASQSIGSSLHWYQQKPDQSPKLLIKFASQSISGVPSRFSGSGSGTDFTLTINSLEAEDAAAYYCHQSSSLPHTFGPGTKVEIK
On to B12, for which the “HTRF deltaF” value was 551 deltaF in experiment [1] and 1030 deltaF in experiment [2].

B13: YANG-2306 (antibody, V domains shown)
VH: QVQLVQSGAEVKKPGASVKVSCKVSGYTLPEISIHWVRQAPGKGLEWMGGFDPEDGETIYAQKFQGRVIMTEDTSTDTAYMDLSSLRSEDTAVYFCAAAPAIASASTFWLDPWGQGTLVTVST
VL: QSALTQPPSASGSPGQSVTISCTGTSSDVGGYNYVSWYQQHPGKAPKLMIYEVTKRPSGVPDRFSGSKSDNTASLTVSGLQAEDEADYYCSSYAGSNNLVFGGGTKLTVL
For B13, in experiment [3], the “PV neutralisation IC50” value stood at 0.43 nM and the “PV neutralization % (Ab 1 ug/mL)” value is 60.4%.

B14: YANG-2305 (antibody, V domains shown)
VH: QVQLVESGGGVVQPGRSLRLSCAASGFTFSSYGMHWVRQAPGKGLEWVAIIWYDGSKKYYADSVKGRFTISRDNSKNTLNLQMNSLRAEDTAVYYCAREEDIVASGGLYYNFNGMDVWGQGTTVTVSS
VL: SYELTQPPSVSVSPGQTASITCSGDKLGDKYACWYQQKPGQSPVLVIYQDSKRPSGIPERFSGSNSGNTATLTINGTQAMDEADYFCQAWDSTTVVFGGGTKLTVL
In the case of B14, in experiment [3], the “PV neutralisation IC50” value stood at 0.57 nM and the “PV neutralization % (Ab 1 ug/mL)” value was 64.4%.
